Measurements reported in patent US20100203046A1 (Biogen, published 2010).
One block for each binder: values may come before it.

How the values were obtained:
human C1q (Sigma C0660) [1] = biological target: T1, human C1q (Sigma C0660) (human, UniProt P02745 23-245; P02746 28-253; P02747 29-245); experiment: C1q ELISA on CD2, purified
T1 construct: Bought protein; also called complement protein C1q
Procedure: (§1) The C1q binding assay was performed by coating 96 well Maxisorb ELISA plates (Nalge-Nunc Rochester, N.Y., USA) with 50 μl recombinant soluble human CD2 at 10 μg/ml overnight at 4° C. in PBS. The wells were aspirated and washed three times with wash buffer (PBS, 0.05% Tween 20) and blocked for >1 h with 200 μ/well of block/diluent buffer (0.1 M Na₂HPO₄, pH 7, 0.1 M NaCl, 0.05% Tween 20, 0.1% gelatin). The antibody to be tested was diluted in block/diluent buffer starting at 15 μg/ml with 3-fold dilutions. 50 μl were added per well, and the plates incubated for 2 h at room temperature. After aspirating and washing as above, 50 μl/well of 2 μg/ml of Sigma human C1q (C0660) diluted in block/diluent buffer was added and incubated for 1.5 h at room temperature. After aspirating and washing as above, 50 μl/well of chicken anti human C1q (Cedarlane laboratories CL2101AP), diluted 2,000-fold in block/diluent buffer, was added. After incubation for 1.5 h at room temperature, the wells were aspirated and washed as above. 50 μl/well of donkey F(ab′)₂ anti chicken IgY HRP conjugate (Jackson ImmunoResearch 703-036-155) diluted to 1:5,000 in block/diluent was then added, and the wells incubated for 1 h at room temperature. After aspirating and washing as above, 100 μl TMB substrate (420 μM TMB, 0.004% H₂O₂ in 0.1 M sodium acetate/citric acid buffer, pH 4.9) was added and incubated for 2 min before the reaction was stopped with 100 μl 2 N sulfuric acid. The absorbance was read at 450 nm with a Softmax P instrument, and Softmax software was used to determine the relative binding affinity (C value) with a 4-parameter fit.

[2] = biological target: T2, human FcγRIII (CD16), CD16a (F158), on CD16-transfected Jurkat cells (human, UniProt P08637 17-254); experiment: CD16 bridging assay, purified
T2 construct: whole, on cells
T2 sequence (P08637 17-254): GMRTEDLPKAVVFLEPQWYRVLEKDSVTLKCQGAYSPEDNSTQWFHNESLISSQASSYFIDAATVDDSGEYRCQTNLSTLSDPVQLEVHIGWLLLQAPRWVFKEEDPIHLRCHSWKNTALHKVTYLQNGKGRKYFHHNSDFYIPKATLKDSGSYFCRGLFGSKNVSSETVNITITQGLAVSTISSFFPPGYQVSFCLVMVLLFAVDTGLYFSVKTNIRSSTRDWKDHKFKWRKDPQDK

[3] = biological target: T3, human FcγRI (CD64) on IFNγ-activated U937 cells (human, UniProt P12314 16-374); experiment: CD64 bridging assay, purified
T3 construct: whole, on cells; also called FcγR1
T3 sequence (P12314 16-374): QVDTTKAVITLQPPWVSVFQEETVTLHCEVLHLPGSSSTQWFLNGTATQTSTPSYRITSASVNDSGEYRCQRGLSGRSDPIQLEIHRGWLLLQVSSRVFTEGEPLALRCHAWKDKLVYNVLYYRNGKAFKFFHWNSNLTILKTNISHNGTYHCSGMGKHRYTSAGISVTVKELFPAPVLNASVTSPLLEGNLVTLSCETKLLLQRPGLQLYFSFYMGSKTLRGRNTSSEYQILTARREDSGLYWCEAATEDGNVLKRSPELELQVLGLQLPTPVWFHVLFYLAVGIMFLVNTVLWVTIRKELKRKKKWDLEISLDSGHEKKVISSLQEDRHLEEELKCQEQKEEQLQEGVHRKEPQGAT

[4] = biological target: T2, human FcγRIII (CD16), CD16a (F158), on …; experiment: CD16 bridging assay, transient
human C1q (Sigma C0660) [5] = biological target: T1, human C1q (Sigma C0660); experiment: C1q ELISA on CD2, transient
Procedure: as §1

[6] = biological target: T2, human FcγRIII (CD16), CD16a (F158), on …; experiment: CD16 bridging assay, transient; remark: listed apart in the source
[7] = biological target: T2, human FcγRIII (CD16), CD16a (F158), on …; experiment: CD16 bridging assay, transient; remark: listed apart in the source

T1 sequence (P02745 23-245 limits assumed, chain 1 of 3): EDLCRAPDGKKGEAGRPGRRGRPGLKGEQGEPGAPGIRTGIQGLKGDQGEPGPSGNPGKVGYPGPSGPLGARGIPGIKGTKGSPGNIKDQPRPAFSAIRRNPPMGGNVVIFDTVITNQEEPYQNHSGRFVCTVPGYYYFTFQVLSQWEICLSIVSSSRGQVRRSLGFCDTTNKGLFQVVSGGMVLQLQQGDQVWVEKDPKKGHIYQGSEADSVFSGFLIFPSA
T1 sequence (P02746 28-253 limits assumed, chain 2 of 3): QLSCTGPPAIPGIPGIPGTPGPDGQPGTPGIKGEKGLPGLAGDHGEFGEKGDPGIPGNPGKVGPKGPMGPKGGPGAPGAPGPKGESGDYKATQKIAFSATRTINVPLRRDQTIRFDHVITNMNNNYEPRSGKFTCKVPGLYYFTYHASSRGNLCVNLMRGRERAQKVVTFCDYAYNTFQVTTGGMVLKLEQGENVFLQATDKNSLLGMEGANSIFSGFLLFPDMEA
T1 sequence (P02747 29-245 limits assumed, chain 3 of 3): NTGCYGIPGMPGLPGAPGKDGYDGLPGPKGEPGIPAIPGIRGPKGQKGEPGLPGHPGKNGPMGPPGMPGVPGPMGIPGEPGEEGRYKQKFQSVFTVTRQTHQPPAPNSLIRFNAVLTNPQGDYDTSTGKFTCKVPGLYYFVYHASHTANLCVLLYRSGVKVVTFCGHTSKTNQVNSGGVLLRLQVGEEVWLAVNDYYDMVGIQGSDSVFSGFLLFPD

binding result (human C1q (Sigma C0660) [1]): binds
fold decrease in binding vs WT [2]: 2 fold
binding result [3]: binds
B1: chCB6-huIgG1 I332H (antibody, name in EU numbering)
heavy: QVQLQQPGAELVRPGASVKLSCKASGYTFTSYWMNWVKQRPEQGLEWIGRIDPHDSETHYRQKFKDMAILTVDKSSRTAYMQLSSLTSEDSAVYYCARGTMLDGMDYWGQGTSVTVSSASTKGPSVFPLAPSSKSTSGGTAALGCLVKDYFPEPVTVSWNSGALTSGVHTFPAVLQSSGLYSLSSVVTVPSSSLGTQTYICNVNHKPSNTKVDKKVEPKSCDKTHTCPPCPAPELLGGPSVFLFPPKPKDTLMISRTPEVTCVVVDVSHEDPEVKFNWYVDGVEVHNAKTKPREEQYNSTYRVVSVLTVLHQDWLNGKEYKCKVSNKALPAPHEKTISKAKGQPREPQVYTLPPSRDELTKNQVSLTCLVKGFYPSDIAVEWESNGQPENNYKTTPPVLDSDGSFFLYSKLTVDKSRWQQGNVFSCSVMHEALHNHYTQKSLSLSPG
light: QIVLTQSPAIMSASPGEKVTMTCRASSSVSHMHWYQQKSGTSPKRWIYDTSKLASGVPARFSGSGSGTSYSLTISSVEAEDAATYYCQQWSSNPLTFGAGTKLELKRTVAAPSVFIFPPSDEQLKSGTASVVCLLNNFYPREAKVQWKVDNALQSGNSQESVTEQDSKDSTYSLSSTLTLSKADYEKHKVYACEVTHQGLSSPVTKSFNRGEC
notes: copies: 2 + 2

binding result (human C1q (Sigma C0660) [1]): binds
fold increase in binding vs WT [4]: 2 fold
fold increase in binding vs WT [2]: 2 fold
binding result [3]: binds
B2: chCB6-huIgG1 I332Q (antibody, name in EU numbering)
heavy: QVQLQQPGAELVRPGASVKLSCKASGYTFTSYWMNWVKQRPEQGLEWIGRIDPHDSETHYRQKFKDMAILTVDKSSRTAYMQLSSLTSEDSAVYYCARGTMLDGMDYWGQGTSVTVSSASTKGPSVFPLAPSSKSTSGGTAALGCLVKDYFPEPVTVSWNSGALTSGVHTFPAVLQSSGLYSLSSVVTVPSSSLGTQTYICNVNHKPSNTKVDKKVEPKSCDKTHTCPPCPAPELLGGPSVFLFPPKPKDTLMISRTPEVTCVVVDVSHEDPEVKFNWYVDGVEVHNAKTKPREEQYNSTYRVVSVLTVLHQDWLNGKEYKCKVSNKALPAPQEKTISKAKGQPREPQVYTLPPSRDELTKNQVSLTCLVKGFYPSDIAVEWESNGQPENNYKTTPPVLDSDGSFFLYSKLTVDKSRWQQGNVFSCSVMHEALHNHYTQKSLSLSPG
light: QIVLTQSPAIMSASPGEKVTMTCRASSSVSHMHWYQQKSGTSPKRWIYDTSKLASGVPARFSGSGSGTSYSLTISSVEAEDAATYYCQQWSSNPLTFGAGTKLELKRTVAAPSVFIFPPSDEQLKSGTASVVCLLNNFYPREAKVQWKVDNALQSGNSQESVTEQDSKDSTYSLSSTLTLSKADYEKHKVYACEVTHQGLSSPVTKSFNRGEC
notes: copies: 2 + 2

binding result (human C1q (Sigma C0660) [1]): no binding
fold decrease in binding vs WT [4]: 3 fold
fold decrease in binding vs WT [2]: 2 fold
binding result [3]: binds
B3: chCB6-huIgG1 L328Q (antibody, name in EU numbering)
heavy: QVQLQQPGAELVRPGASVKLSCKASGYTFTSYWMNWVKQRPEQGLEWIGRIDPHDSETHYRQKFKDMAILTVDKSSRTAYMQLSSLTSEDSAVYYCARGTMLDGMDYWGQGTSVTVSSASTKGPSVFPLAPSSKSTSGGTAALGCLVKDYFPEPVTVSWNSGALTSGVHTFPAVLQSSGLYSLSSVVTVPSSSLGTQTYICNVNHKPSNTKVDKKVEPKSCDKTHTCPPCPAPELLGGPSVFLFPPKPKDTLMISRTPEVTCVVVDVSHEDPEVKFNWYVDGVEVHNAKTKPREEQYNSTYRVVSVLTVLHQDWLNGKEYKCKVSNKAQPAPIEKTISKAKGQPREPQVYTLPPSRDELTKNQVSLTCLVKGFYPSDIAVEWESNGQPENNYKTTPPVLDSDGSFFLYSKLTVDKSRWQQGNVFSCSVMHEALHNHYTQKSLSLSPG
light: QIVLTQSPAIMSASPGEKVTMTCRASSSVSHMHWYQQKSGTSPKRWIYDTSKLASGVPARFSGSGSGTSYSLTISSVEAEDAATYYCQQWSSNPLTFGAGTKLELKRTVAAPSVFIFPPSDEQLKSGTASVVCLLNNFYPREAKVQWKVDNALQSGNSQESVTEQDSKDSTYSLSSTLTLSKADYEKHKVYACEVTHQGLSSPVTKSFNRGEC
notes: copies: 2 + 2

fold decrease in binding vs WT (human C1q (Sigma C0660) [5]): 3 fold
binding result [6]: no binding
B4: chCB6-huIgG1 Y296T (antibody, name in EU numbering)
heavy: not shown
light: QIVLTQSPAIMSASPGEKVTMTCRASSSVSHMHWYQQKSGTSPKRWIYDTSKLASGVPARFSGSGSGTSYSLTISSVEAEDAATYYCQQWSSNPLTFGAGTKLELKRTVAAPSVFIFPPSDEQLKSGTASVVCLLNNFYPREAKVQWKVDNALQSGNSQESVTEQDSKDSTYSLSSTLTLSKADYEKHKVYACEVTHQGLSSPVTKSFNRGEC
notes: copies: 2 + 2

fold decrease in binding vs WT (human C1q (Sigma C0660) [5]): 4 fold
fold decrease in binding vs WT [6]: 5 fold
B5: chCB6-huIgG1 Y296Q (antibody, name in EU numbering)
heavy: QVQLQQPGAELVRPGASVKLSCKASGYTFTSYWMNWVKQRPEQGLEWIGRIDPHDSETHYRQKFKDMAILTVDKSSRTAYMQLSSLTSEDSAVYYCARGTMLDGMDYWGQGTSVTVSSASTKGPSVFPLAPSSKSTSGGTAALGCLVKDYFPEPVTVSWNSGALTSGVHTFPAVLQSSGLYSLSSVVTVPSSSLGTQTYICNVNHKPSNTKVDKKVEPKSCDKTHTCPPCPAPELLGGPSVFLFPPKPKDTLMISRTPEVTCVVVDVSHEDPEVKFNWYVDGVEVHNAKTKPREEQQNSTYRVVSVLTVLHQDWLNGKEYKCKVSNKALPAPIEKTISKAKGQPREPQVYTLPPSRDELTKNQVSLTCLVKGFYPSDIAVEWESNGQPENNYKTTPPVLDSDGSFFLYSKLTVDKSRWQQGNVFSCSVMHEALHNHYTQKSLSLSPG
light: QIVLTQSPAIMSASPGEKVTMTCRASSSVSHMHWYQQKSGTSPKRWIYDTSKLASGVPARFSGSGSGTSYSLTISSVEAEDAATYYCQQWSSNPLTFGAGTKLELKRTVAAPSVFIFPPSDEQLKSGTASVVCLLNNFYPREAKVQWKVDNALQSGNSQESVTEQDSKDSTYSLSSTLTLSKADYEKHKVYACEVTHQGLSSPVTKSFNRGEC
notes: copies: 2 + 2

binding result (human C1q (Sigma C0660) [5]): binds
fold decrease in binding vs WT [6]: 5 fold
B6: chCB6-huIgG1 R301A (antibody, name in EU numbering)
heavy: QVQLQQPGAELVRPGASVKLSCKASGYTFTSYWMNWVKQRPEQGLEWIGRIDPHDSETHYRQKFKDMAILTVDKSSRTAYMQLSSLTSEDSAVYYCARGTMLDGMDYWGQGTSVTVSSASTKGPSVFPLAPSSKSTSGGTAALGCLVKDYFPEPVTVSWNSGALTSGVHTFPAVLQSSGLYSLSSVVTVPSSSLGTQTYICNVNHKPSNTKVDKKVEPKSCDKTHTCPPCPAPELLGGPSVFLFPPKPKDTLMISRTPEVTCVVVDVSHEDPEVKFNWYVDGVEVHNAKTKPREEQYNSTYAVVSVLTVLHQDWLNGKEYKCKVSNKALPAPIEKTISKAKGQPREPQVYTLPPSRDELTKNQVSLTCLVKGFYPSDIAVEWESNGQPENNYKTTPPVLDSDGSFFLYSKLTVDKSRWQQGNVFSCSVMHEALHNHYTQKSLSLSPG
light: QIVLTQSPAIMSASPGEKVTMTCRASSSVSHMHWYQQKSGTSPKRWIYDTSKLASGVPARFSGSGSGTSYSLTISSVEAEDAATYYCQQWSSNPLTFGAGTKLELKRTVAAPSVFIFPPSDEQLKSGTASVVCLLNNFYPREAKVQWKVDNALQSGNSQESVTEQDSKDSTYSLSSTLTLSKADYEKHKVYACEVTHQGLSSPVTKSFNRGEC
notes: copies: 2 + 2

binding result (human C1q (Sigma C0660) [5]): binds
binding result [6]: binds
B7: chCB6-huIgG1 R301T (antibody, name in EU numbering)
heavy: not shown
light: QIVLTQSPAIMSASPGEKVTMTCRASSSVSHMHWYQQKSGTSPKRWIYDTSKLASGVPARFSGSGSGTSYSLTISSVEAEDAATYYCQQWSSNPLTFGAGTKLELKRTVAAPSVFIFPPSDEQLKSGTASVVCLLNNFYPREAKVQWKVDNALQSGNSQESVTEQDSKDSTYSLSSTLTLSKADYEKHKVYACEVTHQGLSSPVTKSFNRGEC
notes: copies: 2 + 2

fold increase in binding vs WT [7]: 3 fold
B8: chCB6-huIgG1 S239D/H435G (antibody, name in EU numbering)
heavy: not shown
light: QIVLTQSPAIMSASPGEKVTMTCRASSSVSHMHWYQQKSGTSPKRWIYDTSKLASGVPARFSGSGSGTSYSLTISSVEAEDAATYYCQQWSSNPLTFGAGTKLELKRTVAAPSVFIFPPSDEQLKSGTASVVCLLNNFYPREAKVQWKVDNALQSGNSQESVTEQDSKDSTYSLSSTLTLSKADYEKHKVYACEVTHQGLSSPVTKSFNRGEC
notes: copies: 2 + 2

fold increase in binding vs WT [7]: 4 fold
B9: chCB6-huIgG1 S239D/A378W (antibody, name in EU numbering)
heavy: not shown
light: QIVLTQSPAIMSASPGEKVTMTCRASSSVSHMHWYQQKSGTSPKRWIYDTSKLASGVPARFSGSGSGTSYSLTISSVEAEDAATYYCQQWSSNPLTFGAGTKLELKRTVAAPSVFIFPPSDEQLKSGTASVVCLLNNFYPREAKVQWKVDNALQSGNSQESVTEQDSKDSTYSLSSTLTLSKADYEKHKVYACEVTHQGLSSPVTKSFNRGEC
notes: copies: 2 + 2

binding result (human C1q (Sigma C0660) [5]): binds
binding result [6]: binds
B10: chCB6-huIgG1 R301S (antibody, name in EU numbering)
heavy: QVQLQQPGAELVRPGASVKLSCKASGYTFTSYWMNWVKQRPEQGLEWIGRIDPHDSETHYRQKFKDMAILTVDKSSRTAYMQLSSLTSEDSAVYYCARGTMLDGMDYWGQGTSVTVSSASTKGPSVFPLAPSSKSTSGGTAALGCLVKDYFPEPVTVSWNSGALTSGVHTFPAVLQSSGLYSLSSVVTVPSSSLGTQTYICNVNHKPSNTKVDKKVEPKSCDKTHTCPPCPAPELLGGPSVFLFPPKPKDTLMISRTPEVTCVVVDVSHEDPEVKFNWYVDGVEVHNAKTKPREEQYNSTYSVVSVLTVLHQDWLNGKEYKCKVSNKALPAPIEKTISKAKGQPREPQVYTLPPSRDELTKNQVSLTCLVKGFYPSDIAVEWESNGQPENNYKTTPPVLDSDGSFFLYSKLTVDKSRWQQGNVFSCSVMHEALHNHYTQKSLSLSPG
light: QIVLTQSPAIMSASPGEKVTMTCRASSSVSHMHWYQQKSGTSPKRWIYDTSKLASGVPARFSGSGSGTSYSLTISSVEAEDAATYYCQQWSSNPLTFGAGTKLELKRTVAAPSVFIFPPSDEQLKSGTASVVCLLNNFYPREAKVQWKVDNALQSGNSQESVTEQDSKDSTYSLSSTLTLSKADYEKHKVYACEVTHQGLSSPVTKSFNRGEC
notes: copies: 2 + 2

binding result (human C1q (Sigma C0660) [5]): binds
fold decrease in binding vs WT [6]: 5 fold
B11: chCB6-huIgG1 R301K (antibody, name in EU numbering)
heavy: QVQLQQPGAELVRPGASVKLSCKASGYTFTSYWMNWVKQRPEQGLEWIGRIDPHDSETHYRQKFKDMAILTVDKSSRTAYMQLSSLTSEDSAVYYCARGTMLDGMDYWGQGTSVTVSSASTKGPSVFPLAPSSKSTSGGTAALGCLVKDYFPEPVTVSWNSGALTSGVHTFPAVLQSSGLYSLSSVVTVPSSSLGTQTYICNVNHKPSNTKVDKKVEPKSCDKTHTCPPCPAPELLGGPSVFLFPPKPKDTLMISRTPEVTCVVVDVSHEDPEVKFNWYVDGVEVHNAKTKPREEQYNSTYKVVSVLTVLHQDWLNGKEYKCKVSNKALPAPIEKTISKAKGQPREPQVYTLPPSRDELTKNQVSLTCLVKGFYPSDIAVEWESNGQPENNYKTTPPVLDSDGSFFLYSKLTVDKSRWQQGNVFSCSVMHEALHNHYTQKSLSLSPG
light: QIVLTQSPAIMSASPGEKVTMTCRASSSVSHMHWYQQKSGTSPKRWIYDTSKLASGVPARFSGSGSGTSYSLTISSVEAEDAATYYCQQWSSNPLTFGAGTKLELKRTVAAPSVFIFPPSDEQLKSGTASVVCLLNNFYPREAKVQWKVDNALQSGNSQESVTEQDSKDSTYSLSSTLTLSKADYEKHKVYACEVTHQGLSSPVTKSFNRGEC
notes: copies: 2 + 2

fold decrease in binding vs WT (human C1q (Sigma C0660) [5]): 7 fold
fold decrease in binding vs WT [6]: 8 fold
B12: chCB6-huIgG1 E294N (antibody, name in EU numbering)
heavy: not shown
light: QIVLTQSPAIMSASPGEKVTMTCRASSSVSHMHWYQQKSGTSPKRWIYDTSKLASGVPARFSGSGSGTSYSLTISSVEAEDAATYYCQQWSSNPLTFGAGTKLELKRTVAAPSVFIFPPSDEQLKSGTASVVCLLNNFYPREAKVQWKVDNALQSGNSQESVTEQDSKDSTYSLSSTLTLSKADYEKHKVYACEVTHQGLSSPVTKSFNRGEC
notes: copies: 2 + 2

fold decrease in binding vs WT [6]: 8 fold
B13: chCB6-huIgG1 E294T (antibody, name in EU numbering)
heavy: not shown
light: QIVLTQSPAIMSASPGEKVTMTCRASSSVSHMHWYQQKSGTSPKRWIYDTSKLASGVPARFSGSGSGTSYSLTISSVEAEDAATYYCQQWSSNPLTFGAGTKLELKRTVAAPSVFIFPPSDEQLKSGTASVVCLLNNFYPREAKVQWKVDNALQSGNSQESVTEQDSKDSTYSLSSTLTLSKADYEKHKVYACEVTHQGLSSPVTKSFNRGEC
notes: copies: 2 + 2

fold increase in binding vs WT [7]: 4 fold
B14: chCB6-huIgG1 S239D/A378Y (antibody, name in EU numbering)
heavy: not shown
light: QIVLTQSPAIMSASPGEKVTMTCRASSSVSHMHWYQQKSGTSPKRWIYDTSKLASGVPARFSGSGSGTSYSLTISSVEAEDAATYYCQQWSSNPLTFGAGTKLELKRTVAAPSVFIFPPSDEQLKSGTASVVCLLNNFYPREAKVQWKVDNALQSGNSQESVTEQDSKDSTYSLSSTLTLSKADYEKHKVYACEVTHQGLSSPVTKSFNRGEC
notes: copies: 2 + 2

fold decrease in binding vs WT (human C1q (Sigma C0660) [5]): 3 fold
fold decrease in binding vs WT [6]: 5 fold
B15: chCB6-huIgG1 R301N (antibody, name in EU numbering)
heavy: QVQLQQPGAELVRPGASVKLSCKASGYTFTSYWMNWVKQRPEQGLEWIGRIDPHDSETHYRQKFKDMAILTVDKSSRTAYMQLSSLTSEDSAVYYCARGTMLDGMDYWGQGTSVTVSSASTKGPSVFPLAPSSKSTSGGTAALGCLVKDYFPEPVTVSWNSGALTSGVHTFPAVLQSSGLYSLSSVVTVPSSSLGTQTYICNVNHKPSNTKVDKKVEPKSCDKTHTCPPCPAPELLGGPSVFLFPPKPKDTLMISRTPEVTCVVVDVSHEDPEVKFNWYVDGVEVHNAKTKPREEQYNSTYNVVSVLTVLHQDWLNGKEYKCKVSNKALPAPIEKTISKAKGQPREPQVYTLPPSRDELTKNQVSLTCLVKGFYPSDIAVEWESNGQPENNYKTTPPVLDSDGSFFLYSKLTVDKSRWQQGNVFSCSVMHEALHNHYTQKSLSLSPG
light: QIVLTQSPAIMSASPGEKVTMTCRASSSVSHMHWYQQKSGTSPKRWIYDTSKLASGVPARFSGSGSGTSYSLTISSVEAEDAATYYCQQWSSNPLTFGAGTKLELKRTVAAPSVFIFPPSDEQLKSGTASVVCLLNNFYPREAKVQWKVDNALQSGNSQESVTEQDSKDSTYSLSSTLTLSKADYEKHKVYACEVTHQGLSSPVTKSFNRGEC
notes: copies: 2 + 2
